# Results as given in FireProtDB (doi:10.1021/bi010636i).
# Several values for one entry are separate records, joined by “and”; a condition that tells them apart may be missing. Equal values may be shown once.
# B1: Cytochrome b5 type B, P04166 (parent)
# chain: MATPEASGSGRNGQGSDPAVTYYRLEEVAKRNTAEETWMVIHGRVYDITRFLSEHPGGEEVLLEQAGADATESFEDVGHSPDAREMLKQYYIGDVHPNDLKPKDGDKDPSKNNSCQSSWAYWIVPIVGAILIGFLYRHFWADSKSS
# Variants of: B1
# Details: Rattus norvegicus, pH 7, CD, potassium phosphate buffer, transition: 2, reversible: yes, structure 1B5M, whole UniProt chain shown; for denaturant midpoint (higher = more stable): 25 °C, GdnHCl; for Tm / change of melting temperature, mutant - wild type (higher = more stable): Thermal
Variant,denaturant midpoint (higher = more stable),Tm,"change of melting temperature, mutant - wild type (higher = more stable)"
I48L,3.93 M and 3.91 M,85.7 °C,-1.3 °C
A34S L63R,3.56 M and 3.52 M,83.3 °C,-3.7 °C
A34S I48L L63R,3.34 M and 3.33 M,81.8 °C,-5.2 °C
